The values below come from patent publication US20260062487A1 (GRITSTONE BIO, published 2026).

Assay [1] addresses T1, HLA-PEPTIDE target A*01:01_… (G2) on cells (human).
T1 construct: whole, on cells; also recovered from cell lysates in the IP-MS experiment; also called G2 pHLA; G2 target
Description: flow cytometry, anti IgG PE, A375 9mer cells (1e6 copies per cell).
Description: A375 transduced with luciferase alone served as the negative control. […] Binding was determined by flow cytometery using an anti IgG-PE antibody for detection.

The target in a further assay is T2, CD3 on CD3+ Jurkat cells (human, UniProt P07766 23-207).
T2 construct: whole, on cells
Description: flow cytometry, anti IgG PE, CD3+ Jurkat cells.

In assay [2] the target is T3, biotinylated refolded G2-pHLA (A*01:01/b2m/…) (human, biotinylated at the C-terminal AviTag).
T3 construct: Soluble complex caught on streptavidin sensors or MSD plates; also called G2-peptide A*01:01/b2m complex; WT
Put plainly: BLI (Octet), biotinylated pHLA on streptavidin sensor, bivalent antibody as analyte (apparent affinity).
Description: (§1) The biosensors were then dipped in assay buffer for a baseline. […] The biosensors were finally dipped into wells containing assay buffer to measure the dissociation rate for another 50 seconds. Referencing was completed by having a biosensor with no immobilized ligand dipped into analyte. Kinetic data was processed with Octet™ software using a 1:1 kinetic model with errors within 10%, X² below 3, and R² above 0.9.

Assay [3] addresses T1, HLA-PEPTIDE target A*01:01_… (G2) on …. Put plainly: flow cytometry, A375 cells engineered to express the G2 peptide.
Description: Tumor cells engineered to express target peptide were harvested, washed in PBS, and stained with eBioscience Fixable Viability Dye eFluor 450 for 15 minutes at room temperature. Following another wash in PBS+1-2% FBS, cells were resuspended with the indicated molecules at varying concentrations and incubated for 1 hour at 4° C. After another wash, PE-conjugated goat anti-human IgG secondary antibody (Jackson ImmunoResearch) was added at 1:100 to 1:200 for 30 minutes at 4° C. After washing in PBS+1-2% FBS, cells were resuspended in PBS+1-2% FBS and analyzed by flow cytometry. Flow cytometric analysis was performed on the Attune NxT Flow Cytometer (ThermoFisher) using the Attune NxT Software. Data was analyzed using FlowJo.
Assay [4] concerns the target T3, biotinylated refolded G2-pHLA …. Description: BLI (ForteBio Octet HTX), biotinylated G2-pHLA captured on streptavidin SAX biosensor, antibody in solution, 1:1 kinetic model.
Description: as §1
The target of assay [5] is biotinylated G5-pHLA (HLA-B*35:01 with …) (human). Put plainly: BLI (ForteBio Octet HTX), biotinylated G5-pHLA captured on streptavidin SAX biosensor, antibody in solution, 1:1 Fit.
Description: as §1
Assay [6] shares this target. Description: BLI (ForteBio Octet HTX), biotinylated G5-pHLA captured on streptavidin SAX biosensor, antibody in solution, 1:2 Fit.
Assay [7] concerns the target T3, biotinylated refolded G2-pHLA …. Description: BLI (ForteBio Octet HTX), biotinylated G2-pHLA captured on streptavidin SAX biosensor, antibody in solution, 1:2 Fit.
Assay [8] has the same target. Put plainly: BLI (ForteBio Octet HTX), biotinylated G2-pHLA captured on streptavidin SAX biosensor, antibody in solution, 1:1 Fit.
Description: as §1

T2 sequence (P07766 23-207): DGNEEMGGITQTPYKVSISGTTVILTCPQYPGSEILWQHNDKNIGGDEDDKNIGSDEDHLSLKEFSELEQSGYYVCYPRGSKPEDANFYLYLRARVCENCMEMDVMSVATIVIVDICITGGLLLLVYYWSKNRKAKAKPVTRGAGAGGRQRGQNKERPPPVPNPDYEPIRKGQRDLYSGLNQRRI
Description for CD3 on CD3+ Jurkat cells: Increasing concentrations of the antibodies were incubated with CD3(+) and CD9(−) Jurkat cells. Binding was determined by flow cytometery using an anti IgG-PE antibody for detection.

B1: 41-E07 hSP34x (Format 41 31E07-CD3 bispecific antibody) (bispecific antibody)
chain: QVQLVQSGAEVKKPGASVKVSCKASGFTFTNYLIHWVRQAPGQGLEWMGWINPNSGGTNYAQRLQGRVTMTRDTSTSTVYMELSSLRSEDTAVYYCARDYGAGNDYWGQGTLVTVSSGGGGSGGGGSDIQMTQSPSSLSASVGDRVTITCRASQEIRRWLAWYQQKPGKAPKLLIYAASNLQSGVPSRFSGSGSGTDFTLTISSLQPEDFATYYCQQSYSTPYTFGQGTKLEIKGGGGSEPKSSDKTHTCPPCPAPEFEGGPSVFLFPPKPKDTLMISRTPEVTCVVVDVSHEDPEVKFNWYVDGVEVHNAKTKPREEQYNSTYRVVSVLTVLHQDWLNGKEYKCKVSNKALPASIEKTISKAKGQPREPQVYTLPPCREEMTKNQVSLWCLVKGFYPSDIAVEWESNGQPENNYKTTPPVLDSDGSFFLYSKLTVDKSRWQQGNVFSCSVMHEALHNHYTQKSLSLSPGK
heavy: QVQLVQSGAEVKKPGASVKVSCKASGFTFTNYLIHWVRQAPGQGLEWMGWINPNSGGTNYAQRLQGRVTMTRDTSTSTVYMELSSLRSEDTAVYYCARDYGAGNDYWGQGTLVTVSSGGGGSGGGGSDIQMTQSPSSLSASVGDRVTITCRASQEIRRWLAWYQQKPGKAPKLLIYAASNLQSGVPSRFSGSGSGTDFTLTISSLQPEDFATYYCQQSYSTPYTFGQGTKLEIKGGGGSGGGGSEVQLVESGGGLVQPGGSLRLSCAASGFTFSTYAMNWVRQAPGKGLEWVGRIRSKYNNYATYYADSVKGRFTISRDDSKNTLYLQMNSLRAEDTAVYYCVRHGNFGDSYVSWFAYWGQGTLVTVSSASTKGPSVFPLAPSSKSTSGGTAALGCLVKDYFPEPVTVSWNSGALTSGVHTFPAVLQSSGLYSLSSVVTVPSSSLGTQTYICNVNHKPSNTKVDKRVEPKSCDKTHTCPPCPAPEFEGGPSVFLFPPKPKDTLMISRTPEVTCVVVDVSHEDPEVKFNWYVDGVEVHNAKTKPREEQYNSTYRVVSVLTVLHQDWLNGKEYKCKVSNKALPASIEKTISKAKGQPREPQVCTLPPSREEMTKNQVSLSCAVKGFYPSDIAVEWESNGQPENNYKTTPPVLDSDGSFFLVSKLTVDKSRWQQGNVFSCSVMHEALHNRFTQKSLSLSPGK
light: QAVVTQEPSLTVSPGGTVTLTCGSSTGAVTTSNYANWVQQKPGKSPRGLIGGTNKRAPGVPARFSGSLLGGKAALTISGAQPEDEADYYCALWYSNHWVFGGGTKLTVLRTVAAPSVFIFPPSDEQLKSGTASVVCLLNNFYPREAKVQWKVDNALQSGNSQESVTEQDSKDSTYSLSSTLTLSKADYEKHKVYACEVTHQGLSSPVTKSFNRGEC
notes: also called 41-31E07-hSP34x
Consider B1, for which the “EC50 (read off the curve)” value in [1] is roughly 2 nM; with CD3 on CD3+ Jurkat cells it was roughly 6 nM.

B2: Format 4-G2(1H11) hOKT3a with engineered VH44/VL100 disulfide bond (DSB) (bispecific antibody, human IgG1, kappa, N297Q)
chain: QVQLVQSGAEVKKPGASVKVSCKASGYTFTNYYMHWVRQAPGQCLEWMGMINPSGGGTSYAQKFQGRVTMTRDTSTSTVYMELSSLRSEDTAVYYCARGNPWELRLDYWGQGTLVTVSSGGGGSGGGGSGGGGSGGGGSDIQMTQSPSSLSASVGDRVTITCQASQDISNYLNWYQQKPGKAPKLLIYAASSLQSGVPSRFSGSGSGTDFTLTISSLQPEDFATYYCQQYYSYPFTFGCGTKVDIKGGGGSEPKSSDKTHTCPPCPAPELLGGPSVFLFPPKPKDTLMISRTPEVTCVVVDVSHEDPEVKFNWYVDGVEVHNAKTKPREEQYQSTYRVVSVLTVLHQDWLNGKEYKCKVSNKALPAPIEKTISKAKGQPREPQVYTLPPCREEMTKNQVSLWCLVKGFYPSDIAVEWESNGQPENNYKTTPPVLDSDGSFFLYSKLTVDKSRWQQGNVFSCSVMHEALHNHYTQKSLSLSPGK
heavy: QVQLVQSGAEVKKPGASVKVSCKASGYTFTNYYMHWVRQAPGQCLEWMGMINPSGGGTSYAQKFQGRVTMTRDTSTSTVYMELSSLRSEDTAVYYCARGNPWELRLDYWGQGTLVTVSSGGGGSGGGGSGGGGSGGGGSDIQMTQSPSSLSASVGDRVTITCQASQDISNYLNWYQQKPGKAPKLLIYAASSLQSGVPSRFSGSGSGTDFTLTISSLQPEDFATYYCQQYYSYPFTFGCGTKVDIKGGGGSGGGGSQVQLVQSGAEVKKPGASVKVSCKASGYTFTRYTMHWVRQAPGQGLEWMGYINPSRGYTNYNQKFKDRVTLTTDKSSSTAYMELSSLRSEDTAVYYCARYYDDHYSLDYWGQGTLVTVSSASTKGPSVFPLAPSSKSTSGGTAALGCLVKDYFPEPVTVSWNSGALTSGVHTFPAVLQSSGLYSLSSVVTVPSSSLGTQTYICNVNHKPSNTKVDKRVEPKSCDKTHTCPPCPAPELLGGPSVFLFPPKPKDTLMISRTPEVTCVVVDVSHEDPEVKFNWYVDGVEVHNAKTKPREEQYQSTYRVVSVLTVLHQDWLNGKEYKCKVSNKALPAPIEKTISKAKGQPREPQVCTLPPSREEMTKNQVSLSCAVKGFYPSDIAVEWESNGQPENNYKTTPPVLDSDGSFFLVSKLTVDKSRWQQGNVFSCSVMHEALHNRFTQKSLSLSPGK
light: DIQMTQSPSSLSASVGDRVTITCSASSSVSYMNWYQQKPGKAPKRLIYDTSKLASGVPSRFSGSGSGTDFTLTISSLQPEDFATYYCQQWSSNPFTFGQGTKLEIKRTVAAPSVFIFPPSDEQLKSGTASVVCLLNNFYPREAKVQWKVDNALQSGNSQESVTEQDSKDSTYSLSSTLTLSKADYEKHKVYACEVTHQGLSSPVTKSFNRGEC
notes: also called 4-G2(1H11)-H44/L100 hOKT3a-TM; Format 4 G2(1H11)-hOKT3_DSBH44/L100
Regarding B2, the Kd in assay [2] turned out to be 35.1 nM. Further, the concentration giving a half-maximal response (EC50) in assay [3] came out at 1750 nM. The molecule further returned an off-rate constant (koff) in assay [4] of 0.025 s⁻¹.

B3: 41-G5(1C12) hOKT3a (Format 4-G5(1C12) hOKT3a with shortened 10 amino acid L1 and L2 linkers) (bispecific antibody, human IgG1, kappa, N297Q)
chain: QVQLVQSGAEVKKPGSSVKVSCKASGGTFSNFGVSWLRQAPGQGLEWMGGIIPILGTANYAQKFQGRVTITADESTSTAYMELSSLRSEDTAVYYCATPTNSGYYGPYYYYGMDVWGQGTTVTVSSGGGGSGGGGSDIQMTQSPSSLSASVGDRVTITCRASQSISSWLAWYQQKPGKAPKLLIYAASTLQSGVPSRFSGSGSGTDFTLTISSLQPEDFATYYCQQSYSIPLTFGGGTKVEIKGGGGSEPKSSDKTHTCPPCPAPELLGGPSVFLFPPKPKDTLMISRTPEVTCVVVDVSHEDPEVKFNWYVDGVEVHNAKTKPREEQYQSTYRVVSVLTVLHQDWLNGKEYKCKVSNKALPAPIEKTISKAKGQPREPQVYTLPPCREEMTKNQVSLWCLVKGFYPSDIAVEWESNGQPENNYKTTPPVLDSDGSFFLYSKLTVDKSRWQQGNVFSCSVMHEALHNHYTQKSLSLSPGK
heavy: QVQLVQSGAEVKKPGSSVKVSCKASGGTFSNFGVSWLRQAPGQGLEWMGGIIPILGTANYAQKFQGRVTITADESTSTAYMELSSLRSEDTAVYYCATPTNSGYYGPYYYYGMDVWGQGTTVTVSSGGGGSGGGGSDIQMTQSPSSLSASVGDRVTITCRASQSISSWLAWYQQKPGKAPKLLIYAASTLQSGVPSRFSGSGSGTDFTLTISSLQPEDFATYYCQQSYSIPLTFGGGTKVEIKGGGGSGGGGSQVQLVQSGAEVKKPGASVKVSCKASGYTFTRYTMHWVRQAPGQGLEWMGYINPSRGYTNYNQKFKDRVTLTTDKSSSTAYMELSSLRSEDTAVYYCARYYDDHYSLDYWGQGTLVTVSSASTKGPSVFPLAPSSKSTSGGTAALGCLVKDYFPEPVTVSWNSGALTSGVHTFPAVLQSSGLYSLSSVVTVPSSSLGTQTYICNVNHKPSNTKVDKRVEPKSCDKTHTCPPCPAPELLGGPSVFLFPPKPKDTLMISRTPEVTCVVVDVSHEDPEVKFNWYVDGVEVHNAKTKPREEQYQSTYRVVSVLTVLHQDWLNGKEYKCKVSNKALPAPIEKTISKAKGQPREPQVCTLPPSREEMTKNQVSLSCAVKGFYPSDIAVEWESNGQPENNYKTTPPVLDSDGSFFLVSKLTVDKSRWQQGNVFSCSVMHEALHNRFTQKSLSLSPGK
light: DIQMTQSPSSLSASVGDRVTITCSASSSVSYMNWYQQKPGKAPKRLIYDTSKLASGVPSRFSGSGSGTDFTLTISSLQPEDFATYYCQQWSSNPFTFGQGTKLEIKRTVAAPSVFIFPPSDEQLKSGTASVVCLLNNFYPREAKVQWKVDNALQSGNSQESVTEQDSKDSTYSLSSTLTLSKADYEKHKVYACEVTHQGLSSPVTKSFNRGEC
notes: also called 4-G5(1C12)_10AAL hOKT3a; G5(1C12)_10AAL
In assay [5], B3 gave a Kd of 2.2 nM, a koff of 0.00279 s⁻¹ and a kon of 1.27e+06 M⁻¹ s⁻¹. Further, in assay [6], the Kd turned out to be 16.1 nM, the koff was 0.00652 s⁻¹ and the kon amounted to 405000 M⁻¹ s⁻¹.

B4: Format 4-G2(1H11) hOKT3a with shortened 10 amino acid L1 and L2 linkers (bispecific antibody, human IgG1, kappa, N297Q)
chain: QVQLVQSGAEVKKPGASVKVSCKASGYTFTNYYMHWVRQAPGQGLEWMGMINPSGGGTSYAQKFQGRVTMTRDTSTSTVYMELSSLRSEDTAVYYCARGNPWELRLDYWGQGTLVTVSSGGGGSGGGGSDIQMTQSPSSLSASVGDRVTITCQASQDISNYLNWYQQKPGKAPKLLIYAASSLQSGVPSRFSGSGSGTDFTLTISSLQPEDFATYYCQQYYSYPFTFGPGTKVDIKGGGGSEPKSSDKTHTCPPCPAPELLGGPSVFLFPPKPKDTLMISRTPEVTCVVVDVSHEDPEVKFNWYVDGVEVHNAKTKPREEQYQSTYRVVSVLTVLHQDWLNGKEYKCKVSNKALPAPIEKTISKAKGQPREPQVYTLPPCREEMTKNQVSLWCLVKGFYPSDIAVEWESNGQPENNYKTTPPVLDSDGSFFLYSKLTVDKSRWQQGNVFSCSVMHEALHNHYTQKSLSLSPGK
heavy: QVQLVQSGAEVKKPGASVKVSCKASGYTFTNYYMHWVRQAPGQGLEWMGMINPSGGGTSYAQKFQGRVTMTRDTSTSTVYMELSSLRSEDTAVYYCARGNPWELRLDYWGQGTLVTVSSGGGGSGGGGSDIQMTQSPSSLSASVGDRVTITCQASQDISNYLNWYQQKPGKAPKLLIYAASSLQSGVPSRFSGSGSGTDFTLTISSLQPEDFATYYCQQYYSYPFTFGPGTKVDIKGGGGSGGGGSQVQLVQSGAEVKKPGASVKVSCKASGYTFTRYTMHWVRQAPGQGLEWMGYINPSRGYTNYNQKFKDRVTLTTDKSSSTAYMELSSLRSEDTAVYYCARYYDDHYSLDYWGQGTLVTVSSASTKGPSVFPLAPSSKSTSGGTAALGCLVKDYFPEPVTVSWNSGALTSGVHTFPAVLQSSGLYSLSSVVTVPSSSLGTQTYICNVNHKPSNTKVDKRVEPKSCDKTHTCPPCPAPELLGGPSVFLFPPKPKDTLMISRTPEVTCVVVDVSHEDPEVKFNWYVDGVEVHNAKTKPREEQYQSTYRVVSVLTVLHQDWLNGKEYKCKVSNKALPAPIEKTISKAKGQPREPQVCTLPPSREEMTKNQVSLSCAVKGFYPSDIAVEWESNGQPENNYKTTPPVLDSDGSFFLVSKLTVDKSRWQQGNVFSCSVMHEALHNRFTQKSLSLSPGK
light: DIQMTQSPSSLSASVGDRVTITCSASSSVSYMNWYQQKPGKAPKRLIYDTSKLASGVPSRFSGSGSGTDFTLTISSLQPEDFATYYCQQWSSNPFTFGQGTKLEIKRTVAAPSVFIFPPSDEQLKSGTASVVCLLNNFYPREAKVQWKVDNALQSGNSQESVTEQDSKDSTYSLSSTLTLSKADYEKHKVYACEVTHQGLSSPVTKSFNRGEC
notes: also called 4-G2(1H11)-10AAL hOKT3a; G2(1H11)_10AAL
In the case of B4, in assay [7], the Kd worked out at 301 nM, the dissociation rate constant (koff) came out at 0.0746 s⁻¹ and the kon turned out to be 248000 M⁻¹ s⁻¹. In assay [8], this molecule registered a Kd of 6.35 nM, an off-rate constant (koff) of 0.00608 s⁻¹ and a kon of 958000 M⁻¹ s⁻¹.
